US10434147B2, “Treatment type 2 diabetes mellitus patients” (Sanofi-Aventis Deutschland GmbH, priority 2015, dated 2019)

Tests used:
Format in all cases: in vivo, human
[1] = tested on: Patients with Type 2 Diabetes Insufficiently Controlled with Insulin Glargine with or without Metformin; assay: Body weight, 26-week study
Excerpt: (§1) FIG. 6—Graphical study design. ^1 Insulin glargine should be injected subcutaneously once daily at dinner or breakfast time (according to patient's/investigators' preference). […] Meal used for insulin glulisine dosing should remain the same throughout the 26-week treatment period. ^4 Injection of insulin glulisine prior to breakfast, lunch and dinner.
(§2) Co-primary endpoints at 26 weeks were (1) non-inferiority (95% CI upper bound <0.4%) in HbA1c reduction with LIXI vs GLU-1 and (2) for LIXI vs GLU-3, either non-inferiority in HbA1c reduction (2a) OR superiority (one-sided α≤0.025) in body weight change (2b). FPG, PPG, IG dose, composite outcomes, AEs, and hypoglycemia were assessed.

[2] = tested on: Patients with Type 2 Diabetes Insufficiently Controlled with Insulin Glargine with or without Metformin; assay: Insulin dose (insulin glargine, insulin glulisine), 26-week study
Excerpt: as §1, §2

[3] = tested on: Patients with Type 2 Diabetes Insufficiently Controlled with Insulin Glargine with or without Metformin; assay: Treatment-emergent adverse events, 26-week study
Excerpt: as §1, §2

[4] = Baseline (before IMP), mITT population
[5] = Week 26 (LOCF), mITT population
[6] = Safety population, PT ≥ 3% table

Substance: Insulin Glulisine TID: insulin glulisine three times daily, added to insulin glargine ± metformin (comparator arm)
- Body weight, Change from baseline to Week 26 (LOCF), LS Mean (SE) ([1]; ANCOVA, mITT population): 1.37 (0.271) kg
- Body weight change to Week 26, LS Mean difference (SE) of Lixisenatide vs. the labelled insulin glulisine arm ([1]; ANCOVA, mITT population, p <.0001): −1.99 (0.305) kg
- Body Weight, BL mean ± SD ([1]; BL, mITT, Example 2 table): 90.0 ± 17.2 kg
- Body weight, Baseline, Mean (SD) [1, 4]: 90.00 (17.21) kg
- Body weight, Baseline, Median [1, 4]: 88.70 kg
- Body weight, Week 26 (LOCF), Mean (SD) [1, 5]: 91.29 (17.27) kg
- Body weight, Week 26 (LOCF), Median [1, 5]: 90.50 kg
- Body Weight, Week 26 (LOCF) mean ± SD ([1]; Week 26 (LOCF), mITT, Example 2 table): 91.3 ± 17.3 kg
- Body Weight, LS mean ± SE change from BL ([1]; Week 26, mITT, Example 2 table): 1.4 ± 0.3 kg
- Body Weight, LS mean treatment difference (lixisenatide vs the labelled arm) ([1]; Week 26, mITT, p < 0.0001, Example 2 table): -2.0 kg
- Body weight, Change from baseline to Week 26 (LOCF), Mean (SD) ([1]; mITT population): 1.29 (2.80) kg
- Body weight, Change from baseline to Week 26 (LOCF), Median ([1]; mITT population): 1.20 kg
- Insulin glargine dose change to Week 26, LS Mean difference (SE) of Lixisenatide vs. the labelled insulin glulisine arm ([2]; ANCOVA, mITT population): 3.83 (1.106) U
- Insulin glargine dose, Change from baseline to Week 26 (LOCF), LS Mean (SE) ([2]; ANCOVA, mITT population): −3.13 (0.982) U
- Insulin Glargine dose, BL (end run-in) mean ± SD ([2]; BL (end run-in), mITT): 65 ± 27 U/day
- Insulin glargine dose, Baseline, Mean (SD) [2, 4]: 65.05 (27.01) U
- Insulin glargine dose, Baseline, Median [2, 4]: 60.67 U
- Insulin Glargine dose, Week 26 (LOCF) mean ± SD ([2]; Week 26 (LOCF), mITT): 61 ± 29 U/day
- Insulin glargine dose, Week 26 (LOCF), Mean (SD) [2, 5]: 61.16 (29.33) U
- Insulin glargine dose, Week 26 (LOCF), Median [2, 5]: 57.00 U
- Insulin Glargine dose, LS mean + SE change from BL ([2]; Week 26, mITT): −3.1 ± 1.0 U/day
- Insulin Glargine dose, LS mean treatment difference (lixisenatide vs the labelled arm) ([2]; Week 26, mITT): 3.9 U/day
- Insulin glargine dose, Change from baseline to Week 26 (LOCF), Mean (SD) ([2]; mITT population): −3.89 (13.28) U
- Insulin glargine dose, Change from baseline to Week 26 (LOCF), Median ([2]; mITT population): −4.00 U
- Patients with any TEAE leading to death ([3]; Safety population): 2 (0.7%) n (%)
- Patients with treatment emergent SAE: Accidental overdose ([3]; Safety population): 1 (0.3%) n (%)
- Patients with TEAE: Accidental overdose [3, 6]: 20 (6.8%) n (%)
- Patients with TEAE: Headache [3, 6]: 12 (4.1%) n (%)
- Patients with TEAE: Hypoglycaemia [3, 6]: 154 (52.4%) n (%)
- Patients with TEAE: Infections and infestations (SOC) [3, 6]: 81 (27.6%) n (%)
- Patients with TEAE: Influenza [3, 6]: 14 (4.8%) n (%)
- Patients with TEAE: Injury, poisoning and procedural complications (SOC) [3, 6]: 28 (9.5%) n (%)
- Patients with TEAE: Investigations (SOC) [3, 6]: 92 (31.3%) n (%)
- Patients with TEAE: Metabolism and nutrition disorders (SOC) [3, 6]: 157 (53.4%) n (%)
- Adjudicated by PSAC: Acute on chronic pancreatitis ([3]; in vivo): 0 n (%)
- Adjudicated by PSAC: Acute pancreatitis ([3]; in vivo): 0 n (%)
- Adjudicated by PSAC: Chronic pancreatitis ([3]; in vivo): 0 n (%)
- Adjudicated by PSAC: Unknown pancreatitis ([3]; in vivo): 0 n (%)
- Gastrointestinal AEs: Diarrhea ([3]; in vivo): 4 (1) n (%)
- Gastrointestinal AEs: Nausea ([3]; in vivo): 3 (1) n (%)
- Gastrointestinal AEs: Vomiting ([3]; in vivo): 6 (2) n (%)
- Patients with TEAE on the specific adverse event form for increased calcitonin (>=20 ng/L): Any ([3]; in vivo): 1 (0.3%) n (%)
- Patients with TEAE on the specific adverse event form for increased calcitonin (>=20 ng/L): Blood calcitonin increased ([3]; in vivo): 1 (0.3%) n (%)
- Patients with TEAE: Any class ([3]; in vivo): 236 (80.3%) n (%)
- Patients with TEAE: Blood glucose decreased ([3]; in vivo): 82 (27.9%) n (%)
- Patients with TEAE: Diarrhoea ([3]; in vivo): 4 (1.4%) n (%)
- Patients with TEAE: Gastrointestinal disorders (SOC) ([3]; in vivo): 22 (7.5%) n (%)
- Patients with TEAE: Nasopharyngitis ([3]; in vivo): 18 (6.1%) n (%)
- Patients with TEAE: Nausea ([3]; in vivo): 3 (1.0%) n (%)
- Patients with TEAE: Nervous system disorders (SOC) ([3]; in vivo): 29 (9.9%) n (%)
- Patients with TEAE: Upper respiratory tract infection ([3]; in vivo): 11 (3.7%) n (%)
- Patients with TEAE: Vomiting ([3]; in vivo): 6 (2.0%) n (%)
- Patients with any TEAE ([3]; in vivo): 236 (80.3%) n (%)
- Patients with any TEAE leading to permanent treatment discontinuation ([3]; in vivo): 3 (1.0%) n (%)
- Patients with any treatment emergent SAE ([3]; in vivo): 14 (4.8%) n (%)
- Patients with events adjudicated as allergic reaction by ARAC: All, Any category, Any event ([3]; in vivo): 1 (0.3%) n (%)
- Patients with events adjudicated as allergic reaction by ARAC: OTHER ALLERGIC REACTION, Rhinitis allergic ([3]; in vivo): 1 (0.3%) n (%)
- Patients with events adjudicated as allergic reaction by ARAC: Possibly Related to IMP, Any event ([3]; in vivo): 0 n (%)
- Patients with events adjudicated as allergic reaction by ARAC: URTICARIA (HIVES), Urticaria ([3]; in vivo): 0 n (%)
- Patients with treatment emergent SAE: Abdominal pain ([3]; in vivo): 0 n (%)
- Patients with treatment emergent SAE: Angina pectoris ([3]; in vivo): 1 (0.3%) n (%)
- Patients with treatment emergent SAE: Angina unstable ([3]; in vivo): 0 n (%)
- Patients with treatment emergent SAE: Ankle fracture ([3]; in vivo): 0 n (%)
- Patients with treatment emergent SAE: Any class ([3]; in vivo): 14 (4.8%) n (%)
- Patients with treatment emergent SAE: Atrial fibrillation ([3]; in vivo): 0 n (%)
- Patients with treatment emergent SAE: Atrioventricular block complete ([3]; in vivo): 1 (0.3%) n (%)
- Patients with treatment emergent SAE: Basal cell carcinoma ([3]; in vivo): 1 (0.3%) n (%)
- Patients with treatment emergent SAE: Cardiac disorders (SOC) ([3]; in vivo): 5 (1.7%) n (%)
- Patients with treatment emergent SAE: Cardiac failure chronic ([3]; in vivo): 1 (0.3%) n (%)
- Patients with treatment emergent SAE: Cardiac failure congestive ([3]; in vivo): 1 (0.3%) n (%)
- Patients with treatment emergent SAE: Cellulitis ([3]; in vivo): 1 (0.3%) n (%)
- Patients with treatment emergent SAE: Cerebrovascular accident ([3]; in vivo): 2 (0.7%) n (%)
- Patients with treatment emergent SAE: Decreased appetite ([3]; in vivo): 0 n (%)
- Patients with treatment emergent SAE: Dehydration ([3]; in vivo): 0 n (%)
